The target in assay [1] is T1, recombinant memapsin 2 (M2pd), auto-activated from pro-M2pd at pH 4.0 (human, UniProt P56817 25-419, limits assumed).
T1 construct: also called beta-secretase
In words: comparison of Ki of the inhibitor without P4 Glu with that of OM99-2.

Assay [2] addresses T1, recombinant memapsin 2 (M2pd), …. Put plainly: enzyme inhibition with a synthetic fluorogenic peptide substrate. The procedure: Enzyme activity was measured as described above, but with the addition of either OM99-1 or OM99-2.
For assay [3] the target is unchanged. Put plainly: Ki quoted for the inhibitor used in the crystal trials; assay not described at this place.

Where no end group is shown, it is not given here.

T1 sequence (P56817 25-419 limits assumed): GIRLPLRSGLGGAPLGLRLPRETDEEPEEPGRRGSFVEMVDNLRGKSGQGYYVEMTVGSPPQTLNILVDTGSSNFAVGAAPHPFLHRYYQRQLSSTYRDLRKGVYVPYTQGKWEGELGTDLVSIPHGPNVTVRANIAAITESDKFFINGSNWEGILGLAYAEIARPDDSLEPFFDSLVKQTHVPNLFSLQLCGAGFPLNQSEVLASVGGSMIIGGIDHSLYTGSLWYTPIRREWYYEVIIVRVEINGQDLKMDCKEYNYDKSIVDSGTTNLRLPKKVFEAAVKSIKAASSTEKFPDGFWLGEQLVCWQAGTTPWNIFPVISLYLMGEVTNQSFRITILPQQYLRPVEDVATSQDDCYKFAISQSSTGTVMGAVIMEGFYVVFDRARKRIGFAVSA

B1: OM99-1: Val-Asn-Leu*Ala-Ala-Glu-Phe (peptide)
peptide: VNLAAEF
modifications: also: Leu-Ala peptide bond replaced by hydroxyethylene isostere -CH(OH)-CH2-
notes: also called OMR99-1
Consider B1, for which the “fold increase in Ki against OM99-2” value in assay [1] was 10 fold. Also, in assay [2], the inhibition constant (Ki) came to 30 nM.

B2: OM99-2: Glu-Val-Asn-Leu*Ala-Ala-Glu-Phe (peptide)
peptide: EVNLAAEF
modifications: also: Leu-Ala peptide bond replaced by hydroxyethylene isostere -CH(OH)-CH2-
Regarding B2, the Ki in assay [3] came to 10 nM.

The Ki is a measure of affinity in units of concentration, obtained from inhibition or displacement.

The values are drawn from US20020049303A1 (OKLAHOMA MEDICAL RESEARCH FOUNDATION, published 2002).
